Measurements as given in US20230212285A1.

Biological target: human C-KIT-Fc protein (human) (UniProt P10721)
Assay: direct ELISA, IgG at 1 µg/ml

Binder	OD450 nm
E-C2 (antibody, human IgG1, V domains shown) VH: QVQLVQSGAEVKKPGASVKVSCKASGYTFTDYYMNWVRQAPGQGLEWMGRIYPGSGNTYYAQKFQGRVTMTRDTSTSTVYMELSSLRSEDTAVYYCARGVYYLDYWGQGTLVTVSS VL: DIQMTQSPSSLSASVGDRVTITCRASQGIRTNVAWLQQKPGKAPKSLIYSASYRQSGVPSRFSGSGSGTDFTLTISSLQPEDFATYYCQQYNSYPRTFGGGTKVEIK	> 1.8 OD450 nm
MH1 IgG1 (antibody, V domains shown) VH: QVQLVQSGAEVKKPGASVKVSCKASGYTFTDYYMNWVRQAPGQGLEWMGRIYPGSGNTYYAQKFQGRVTMTRDTSTSTVYMELSSLRSEDTAVYYCARGVYYYDYWGQGTLVTVSS VL: DIQMTQSPSSLSASVGDRVTITCRASQGIRTNLAWFQQKPGKAPKSLIYAASSLQSGVPSRFSGSGSGTDFTLTISSLQPEDFATYYCQQYNSYPRTFGGGTKVEIK	> 1.8 OD450 nm
